doi:10.1101/2024.07.12.603347

Legend:
[1] = target: Biarylitide crosslinking cytochrome P450Blt; assay: UV-visible absorbance titration
[2] = target: Cytochrome P450 RufO (Streptomyces atratus); assay: UV-visible absorbance titration

Work on “Nle-RYLH (Nle-1), BytA pentapeptide MRYLH with norleucine in place of Met” yielded a Kd [1] of 2.1 µM and a Kd [2] of 0.84 µM.
